Experimental data reported in paper PMC4266597, “Ultrastable cellulosome-adhesion complex tightens under load” (Nature Communications, 2014).

Tests used:
[1] = molecular target: T1, T129C Xyn-XMod-Doc protein (R. flavefaciens XMod-Doc from the CttA scaffoldin fused to the XynT6 xylanase … (Ruminococcus flavefaciens strain FD1, UniProt A0AEF5 565-803, engineered cysteine (T129C in the xylanase) coupled to a 5 kDa NHS-PEG-Mal linker on the cover glass or cantilever)); assay: AFM single-molecule force spectroscopy; both partners covalently immobilised through PEG linkers; configuration I: Coh-CBM on the cantilever, Xyn-XMod-Doc on the cover glass (configuration II the reverse); Ca-TBS (25 mM TRIS, 72 mM NaCl, 1 mM CaCl2, pH 7.2); pulling speeds 0.2 to 6.4 um/s; final complex rupture with intact XMod; Bell-Evans fit; details: both partners purified
T1 construct: X-module and dockerin (XMod-Doc) of the CttA scaffoldin of Ruminococcus flavefaciens strain FD1; The Xyn domain is a marker (fingerprint) and immobilisation domain and is written as a carrier under tags; Addgene 60865 holds the plasmid; also called XynT6-XDoc T129C; Xylanase-Xmodule-Dockerin; source: E. coli BL21, purified (Ni-NTA); not shown: XynT6 xylanase from Geobacillus stearothermophilus …
T1 sequence: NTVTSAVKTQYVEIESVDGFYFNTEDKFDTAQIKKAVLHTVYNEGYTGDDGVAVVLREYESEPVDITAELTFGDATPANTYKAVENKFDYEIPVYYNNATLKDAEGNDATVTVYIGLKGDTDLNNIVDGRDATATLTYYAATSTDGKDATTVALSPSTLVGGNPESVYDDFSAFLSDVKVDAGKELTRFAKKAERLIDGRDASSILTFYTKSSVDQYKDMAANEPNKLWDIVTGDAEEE

[2] = molecular target: T1, T129C Xyn-XMod-Doc protein (R. …); assay: AFM single-molecule force spectroscopy; as a1, but final Doc:Coh rupture immediately following XMod unfolding (35–40% of traces); Bell-Evans fit; details: both partners purified

koff [1]: 7.3e-07 s⁻¹
koff of the rupture following XMod unfolding [2]: 0.00047 s⁻¹
rupture force following XMod unfolding [2]: ~300 pN
B1: Coh-CBM C2A, C63S fusion protein (R. flavefaciens CohE from ScaE fused to cellulose-binding module 3a (CBM3a) from C. thermocellum), with ybbR tag (domain or fragment, Ruminococcus flavefaciens strain FD1)
chain: ALTDRGMTYDLDPKDGSSAATKPVLEVTKKVFDTAADAAGQTVTVEFKVSGAEGKYATTGYHIYWDERLEVVATKTGAYAKKGAALEDSSLAKAENNGNGVFVASGADDDFGADGVMWTVELKVPADAKAGDVYPIDVAYQWDPSKGDLFTDNKDSAQGKLMQAYFFTQGIKSSSNPSTDEYLVKANATYADGYIAIKAGEP
modifications: ybbR tag covalently linked to Coenzyme A on PEG by Sfp phosphopantetheinyl transferase
notes: cohesin CohE of the ScaE scaffoldin of Ruminococcus flavefaciens strain FD1; The CBM is a marker (fingerprint) and immobilisation domain and is written as a carrier under tags; C2A reverts the earlier A2C in the CBM; also called CohE-CBM C2A C63S; Coh-CBM-ybbR; source: E. coli BL21(DE3) RIPL, purified (Ni-NTA); not shown: CBM3a from C. thermocellum with C2A and C63S, C-terminal, kept
